Source: US20250163162A1 (SYNTHEKINE, published 2025)

What was measured:
Test in all cases: cell-based or functional assay
[1] = target: T1, IL10Rα/IL2Rγ receptor (human, UniProt Q13651 22-578; P31785 23-369)
T1 sequence (looked up) 1: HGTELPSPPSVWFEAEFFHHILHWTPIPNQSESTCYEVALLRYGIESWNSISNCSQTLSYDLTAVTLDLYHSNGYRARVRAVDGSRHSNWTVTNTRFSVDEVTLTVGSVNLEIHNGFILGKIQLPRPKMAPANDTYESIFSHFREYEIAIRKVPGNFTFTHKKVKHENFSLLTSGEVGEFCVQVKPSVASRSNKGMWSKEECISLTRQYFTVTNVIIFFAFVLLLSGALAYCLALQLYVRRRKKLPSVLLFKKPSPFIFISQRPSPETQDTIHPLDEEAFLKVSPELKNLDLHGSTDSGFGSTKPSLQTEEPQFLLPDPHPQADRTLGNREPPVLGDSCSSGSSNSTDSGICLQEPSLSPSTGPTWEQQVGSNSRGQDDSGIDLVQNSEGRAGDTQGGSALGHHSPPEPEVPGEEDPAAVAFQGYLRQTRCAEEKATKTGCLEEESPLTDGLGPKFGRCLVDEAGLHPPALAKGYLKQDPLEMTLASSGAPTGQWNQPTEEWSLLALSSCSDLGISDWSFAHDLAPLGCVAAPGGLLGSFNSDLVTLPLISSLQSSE
T1 sequence (looked up) 2: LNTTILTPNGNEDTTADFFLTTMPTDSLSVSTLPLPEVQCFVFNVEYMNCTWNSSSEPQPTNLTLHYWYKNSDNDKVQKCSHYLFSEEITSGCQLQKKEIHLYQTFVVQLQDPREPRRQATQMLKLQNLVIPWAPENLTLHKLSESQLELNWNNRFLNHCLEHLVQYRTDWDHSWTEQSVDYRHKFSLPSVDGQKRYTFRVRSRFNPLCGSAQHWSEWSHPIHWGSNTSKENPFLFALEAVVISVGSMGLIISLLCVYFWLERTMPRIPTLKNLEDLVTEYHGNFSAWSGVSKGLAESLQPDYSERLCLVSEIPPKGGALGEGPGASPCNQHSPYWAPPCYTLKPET

[2] = target: T1, IL10Rα/IL2Rγ receptor; remark: listed apart in the source
[3] = target: T1, IL10Rα/IL2Rγ receptor; remark: listed apart in the source
[4] = target: T1, IL10Rα/IL2Rγ receptor; remark: listed apart in the source
[5] = target: T1, IL10Rα/IL2Rγ receptor; remark: listed apart in the source
[6] = target: T1, IL10Rα/IL2Rγ receptor; remark: listed apart in the source

B1: DR449(DR237-DR233) (bispecific antibody)
chain: QVQLQESGGGSVQAGGSLRLSCAASGYTYSMYCMGWFRQAPGKEREGVAQINSDGSTSYADSVKGRFTISKDNAKNTLYLQMNSLKPEDTAMYYCAADSRVYGGSWYERLCGPYTYEYNYWGQGTQVTVSSGGGSQVQLQESGGGSVQAGGSLRLSCTASGFTFDDSDMGWYRQAPGNECELVSTISSDGSTYYADSVKGRFTISQDNAKNTVYLQMNSLKPEDTAVYYCAAEPRGYYSNYGGRRECNYWGQGTQVTVSSASHHHHHH
For B1, which “pSTAT3 MFI, B cells, 100 nM (unstimulated 1045)” value [1] is on record?
Its value is 1090 MFI.

And the “pSTAT3 MFI, CD4+ T cells, 100 nM (unstimulated 1778)” value [1]?
The value was 2700 MFI.

What about the “pSTAT3 MFI, CD8+ T cells, 100 nM (unstimulated 1288)” value [1] of the same binder?
Its value is 1880 MFI.

And the “pSTAT3 MFI, Monocytes, 100 nM (unstimulated 1787)” value [1]?
Its value is 1880 MFI.

And the “pSTAT3 MFI, NK cells, 100 nM (unstimulated 1149)” value [1]?
The value was 1250 MFI.

B2: DR392(DR229-DR236) (bispecific antibody)
chain: QVQLQESGGGLVQPGGSLRLSCTASGFSFSSYPMTWARQAPGKGLEWVSTIASDGGSTAYAASVEGRFTISRDNAKSTLYLQLNSLKTEDTAMYYCTKGYGDGTPAPGQGTQVTVSSGGGSQVQLQESGGGSVQAGGSLRLSCAASRFTYSSYCMGWFRQAPGKEREGVASIDSDGSTSYTDSVKGRFTISKDNAKNTLYLQMNSLKPEDTAMYYCALDLMSTVVPGFCGFLLSAGMDYWGKGTQVTVSSASHHHHHH
Which results are given for B2?
pSTAT3 MFI, B cells, 100 nM (unstimulated 1045) [1]: 1060 MFI; pSTAT3 MFI, CD4+ T cells, 100 nM (unstimulated 1778) [1]: 3340 MFI; pSTAT3 MFI, CD8+ T cells, 100 nM (unstimulated 1288) [1]: 2390 MFI; pSTAT3 MFI, Monocytes, 100 nM (unstimulated 1787) [1]: 1890 MFI; pSTAT3 MFI, NK cells, 100 nM (unstimulated 1149) [1]: 1280 MFI

B3: DR441(DR236-DR231) (bispecific antibody)
chain: QVQLQESGGGSVQAGGSLRLSCAASRFTYSSYCMGWFRQAPGKEREGVASIDSDGSTSYTDSVKGRFTISKDNAKNTLYLQMNSLKPEDTAMYYCALDLMSTVVPGFCGFLLSAGMDYWGKGTQVTVSSGGGSQVQLQESGGGSVQAGGSLRLSCTASGFTFDDREMNWYRQAPGNECELVSTISSDGSTYYADSVKGRFTISQDNAKNTVYLQMDSVKPEDTAVYYCAADFMIAIQAPGAGCWGQGTQVTVSSASHHHHHH
What does the source list for B3?
pSTAT3 MFI, CD4 T cells, 0.0001 nM (unstimulated 1887) [2]: 1810 MFI; pSTAT3 MFI, CD4 T cells, 0.001 nM (unstimulated 1887) [2]: 1830 MFI; pSTAT3 MFI, CD4 T cells, 0.01 nM (unstimulated 1887) [2]: 1880 MFI; pSTAT3 MFI, CD4 T cells, 0.1 nM (unstimulated 1887) [2]: 2240 MFI; pSTAT3 MFI, CD4 T cells, 1 nM (unstimulated 1887) [2]: 4560 MFI; pSTAT3 MFI, CD4 T cells, 10 nM (unstimulated 1887) [2]: 6760 MFI; pSTAT3 MFI, CD4 T cells, 100 nM (unstimulated 1887) [2]: 6350 MFI; pSTAT3 MFI, CD8 T cells, 0.0001 nM (unstimulated 1446) [3]: 1380 MFI; pSTAT3 MFI, CD8 T cells, 0.001 nM (unstimulated 1446) [3]: 1410 MFI; pSTAT3 MFI, CD8 T cells, 0.01 nM (unstimulated 1446) [3]: 1430 MFI; pSTAT3 MFI, CD8 T cells, 0.1 nM (unstimulated 1446) [3]: 1610 MFI; pSTAT3 MFI, CD8 T cells, 1 nM (unstimulated 1446) [3]: 3060 MFI; pSTAT3 MFI, CD8 T cells, 10 nM (unstimulated 1446) [3]: 4470 MFI; pSTAT3 MFI, CD8 T cells, 100 nM (unstimulated 1446) [3]: 4260 MFI; pSTAT3 MFI, NK cells, 0.0001 nM (unstimulated 1315) [4]: 1250 MFI; pSTAT3 MFI, NK cells, 0.001 nM (unstimulated 1315) [4]: 1260 MFI; pSTAT3 MFI, NK cells, 0.01 nM (unstimulated 1315) [4]: 1270 MFI; pSTAT3 MFI, NK cells, 0.1 nM (unstimulated 1315) [4]: 1270 MFI; pSTAT3 MFI, NK cells, 1 nM (unstimulated 1315) [4]: 1440 MFI; pSTAT3 MFI, NK cells, 10 nM (unstimulated 1315) [4]: 1800 MFI; pSTAT3 MFI, NK cells, 100 nM (unstimulated 1315) [4]: 1770 MFI; pSTAT3 MFI, B cells, 100 nM (unstimulated 1045) [1]: 1280 MFI; pSTAT3 MFI, CD4+ T cells, 100 nM (unstimulated 1778) [1]: 5760 MFI; pSTAT3 MFI, CD8+ T cells, 100 nM (unstimulated 1288) [1]: 3940 MFI; pSTAT3 MFI, Monocytes, 100 nM (unstimulated 1787) [1]: 2130 MFI; pSTAT3 MFI, NK cells, 100 nM (unstimulated 1149) [1]: 1660 MFI; pSTAT3 MFI, Monocytes, 0.0001 nM (unstimulated 2116) [5]: 2030 MFI; pSTAT3 MFI, Monocytes, 0.001 nM (unstimulated 2116) [5]: 2040 MFI; pSTAT3 MFI, Monocytes, 0.01 nM (unstimulated 2116) [5]: 2030 MFI; pSTAT3 MFI, Monocytes, 0.1 nM (unstimulated 2116) [5]: 2010 MFI; pSTAT3 MFI, Monocytes, 1 nM (unstimulated 2116) [5]: 2060 MFI; pSTAT3 MFI, Monocytes, 10 nM (unstimulated 2116) [5]: 2340 MFI; pSTAT3 MFI, Monocytes, 100 nM (unstimulated 2116) [5]: 2290 MFI; pSTAT3 MFI, B cells, 0.0001 nM (unstimulated 1193.5) [6]: 1120 MFI; pSTAT3 MFI, B cells, 0.001 nM (unstimulated 1193.5) [6]: 1130 MFI; pSTAT3 MFI, B cells, 0.01 nM (unstimulated 1193.5) [6]: 1130 MFI; pSTAT3 MFI, B cells, 0.1 nM (unstimulated 1193.5) [6]: 1120 MFI; pSTAT3 MFI, B cells, 1 nM (unstimulated 1193.5) [6]: 1220 MFI; pSTAT3 MFI, B cells, 10 nM (unstimulated 1193.5) [6]: 1540 MFI; pSTAT3 MFI, B cells, 100 nM (unstimulated 1193.5) [6]: 1470 MFI

B4: DR438(DR235-DR234) (bispecific antibody)
chain: QVQLQESGGGSVQAGGSLRLSCAASRYLYSIDYMAWFRQSPGKEREPVAVIYTASGATFYPDSVKGRFTISQDNAKMTVYLQMNSLKSEDTAMYYCAAVRKTDSYLFDAQSFTYWGQGTQVTVSSGGGSQVQLQESGGGSVQAGGSLRLSCVASGYTFSSYCMGWFRQAPGKEREGVAALGGGSTYYADSVKGRFTISQDNAKNTLYLQMNSLKPEDTAMYYCAAAWVACLEFGGSWYDLARYKHWGQGTQVTVSSASHHHHHH
What does the source list for B4?
pSTAT3 MFI, B cells, 100 nM (unstimulated 1045) [1]: 1050 MFI; pSTAT3 MFI, CD4+ T cells, 100 nM (unstimulated 1778) [1]: 2780 MFI; pSTAT3 MFI, CD8+ T cells, 100 nM (unstimulated 1288) [1]: 1830 MFI; pSTAT3 MFI, Monocytes, 100 nM (unstimulated 1787) [1]: 1810 MFI; pSTAT3 MFI, NK cells, 100 nM (unstimulated 1149) [1]: 1170 MFI

B5: DR444(DR236-DR234) (bispecific antibody)
chain: QVQLQESGGGSVQAGGSLRLSCAASRFTYSSYCMGWFRQAPGKEREGVASIDSDGSTSYTDSVKGRFTISKDNAKNTLYLQMNSLKPEDTAMYYCALDLMSTVVPGFCGFLLSAGMDYWGKGTQVTVSSGGGSQVQLQESGGGSVQAGGSLRLSCVASGYTFSSYCMGWFRQAPGKEREGVAALGGGSTYYADSVKGRFTISQDNAKNTLYLQMNSLKPEDTAMYYCAAAWVACLEFGGSWYDLARYKHWGQGTQVTVSSASHHHHHH
How did the “pSTAT3 MFI, B cells, 100 nM (unstimulated 1045)” value [1] turn out when B5 was run?
The value was 1070 MFI.

What about the “pSTAT3 MFI, CD4+ T cells, 100 nM (unstimulated 1778)” value [1] of the same binder?
The value was 3700 MFI.

What about the “pSTAT3 MFI, CD8+ T cells, 100 nM (unstimulated 1288)” value [1] of the same binder?
The value was 2410 MFI.

And the “pSTAT3 MFI, Monocytes, 100 nM (unstimulated 1787)” value [1]?
Its value is 1830 MFI.

What about the “pSTAT3 MFI, NK cells, 100 nM (unstimulated 1149)” value [1] of the same binder?
Its value is 1270 MFI.
